# Results: patent publication US20240043568A1 (KEYMED BIOSCIENCES, published 2024)
# T1: human CD3εγ-Fc heterodimer (human)
# T1 construct: also called human CD3 εγ protein; recombinant CD3 εγ protein
# T1 chain 1: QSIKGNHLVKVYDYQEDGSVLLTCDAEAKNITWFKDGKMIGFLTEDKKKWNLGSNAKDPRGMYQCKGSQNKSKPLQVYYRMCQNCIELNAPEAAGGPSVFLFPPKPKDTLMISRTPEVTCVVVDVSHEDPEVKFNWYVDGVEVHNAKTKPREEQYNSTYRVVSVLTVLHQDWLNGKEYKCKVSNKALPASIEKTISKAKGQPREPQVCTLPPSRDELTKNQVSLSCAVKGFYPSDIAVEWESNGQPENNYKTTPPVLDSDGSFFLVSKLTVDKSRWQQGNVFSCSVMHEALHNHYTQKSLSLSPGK
# T1 chain 2: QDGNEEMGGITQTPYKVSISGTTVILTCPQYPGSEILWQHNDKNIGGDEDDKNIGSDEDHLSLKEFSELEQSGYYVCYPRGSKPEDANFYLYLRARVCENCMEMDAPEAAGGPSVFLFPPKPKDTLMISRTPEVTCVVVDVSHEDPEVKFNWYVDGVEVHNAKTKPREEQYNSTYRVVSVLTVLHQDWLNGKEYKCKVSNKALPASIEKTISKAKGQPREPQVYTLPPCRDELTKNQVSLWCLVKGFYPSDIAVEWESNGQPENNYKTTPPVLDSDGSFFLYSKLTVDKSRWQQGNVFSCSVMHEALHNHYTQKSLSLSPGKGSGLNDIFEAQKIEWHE
# T2: cynomolgus monkey CD3εγ-Fc heterodimer (cynomolgus monkey)
# T2 construct: also called monkey CD3 εγ protein
# T2 chain 1: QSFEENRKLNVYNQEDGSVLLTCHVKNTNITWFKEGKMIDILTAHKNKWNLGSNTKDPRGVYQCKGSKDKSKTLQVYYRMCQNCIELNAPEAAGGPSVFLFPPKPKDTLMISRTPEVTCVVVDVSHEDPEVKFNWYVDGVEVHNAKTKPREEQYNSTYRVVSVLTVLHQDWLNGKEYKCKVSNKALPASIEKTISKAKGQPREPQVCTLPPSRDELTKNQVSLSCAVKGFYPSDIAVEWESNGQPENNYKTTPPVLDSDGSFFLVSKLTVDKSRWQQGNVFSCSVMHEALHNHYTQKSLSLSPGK
# T2 chain 2: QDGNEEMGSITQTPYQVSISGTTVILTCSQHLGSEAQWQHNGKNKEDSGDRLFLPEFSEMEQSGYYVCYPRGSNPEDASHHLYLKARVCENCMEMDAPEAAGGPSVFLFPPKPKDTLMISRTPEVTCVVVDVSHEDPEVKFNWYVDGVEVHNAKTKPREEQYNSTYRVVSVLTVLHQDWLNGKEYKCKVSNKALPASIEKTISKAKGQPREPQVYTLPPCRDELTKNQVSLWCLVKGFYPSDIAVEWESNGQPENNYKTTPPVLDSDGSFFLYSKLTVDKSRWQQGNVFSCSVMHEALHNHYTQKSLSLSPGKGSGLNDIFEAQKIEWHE
# Key:
# human GPC3 on cells = target: T3, human GPC3 on cells (human, UniProt P51654 25-563); experiment: flow cytometry, CHO-human GPC3 cells
# T3 construct: whole, on cells; One molecule is used for both CHO-hGPC3 transfectants and GPC3+ HepG2 cells; The assay field names the cell; also called CHO-hGPC3 (clone 2B10); CHO-human GPC3
# Description: (§1) CHO-human GPC3 and CHO-cynomolgus monkey GPC3 stably-transfected cells in the logarithmic growth phase were taken, adjusted to 5×10⁵ cells/ml using 4% calf serum (Hyclone, SH30626.06), and added to a 96-well U-shaped plate at 100 μl/well cell suspension. The centrifugation was performed at 300 g for 5 min. The supernatant was discarded. 100 μL of gradient diluted antibody (initial concentration: 1800 nM, 3-fold dilution, 10 gradients) was added to each well, and incubated at 4° C. for 60 min. The secondary antibody Alexa Fluro647 labeled goat anti-human IgG Fc (1:300 dilution) was added at 50 μL/well and incubated on ice for 20 min. After washing once, propidium iodide solution (1:300) was added at 50 μL/well. Incubation was performed for 5 min before detection by flow cytometry.
# [1] = target: T4, cynomolgus monkey GPC3 on CHO cells (cynomolgus monkey, UniProt A0A2K5VK50 24-579); experiment: flow cytometry, CHO-cynomolgus monkey GPC3 cells
# T4 construct: whole, on cells; also called CHO-cynoGPC3 (clone 4D6); CHO-cynomolgus monkey GPC3
# Description: as §1
# [2] = target: T1, human CD3εγ-Fc heterodimer; experiment: SPR (Biacore T200), CD3εγ amine-coupled to the chip, antibody as analyte
# Description: (§2) Human or monkey CD3 εγ recombinant antigen at 10 μg/mL was bound to a CMS chip (GE healthcare) by amino coupling, and the antigen binding capacity was controlled to approximately 200 RU. After the baseline was stable, gradient diluted antibodies (initially with 10 μg/mL, 2-fold dilution, 7 gradients) were flowed through the chip at a flow rate of 30 μL/min, with an association time of 350 seconds and a dissociation time of 600 seconds. The kinetic constants were obtained by fitting with 1:1 binding model using Biacore T200 evaluation software.
# [3] = target: T2, cynomolgus monkey CD3εγ-Fc heterodimer; experiment: as above
# Description: as §2
# human CD3 on T cells [4] = target: T5, human CD3 on T cells (human, UniProt P07766 23-207); experiment: flow cytometry, human peripheral blood CD8+ T cells
# T5 construct: whole, on cells; The target is the native CD3 complex on cells; The recombinant antigen used elsewhere is the εγ heterodimer; also called CD3 on Jurkat cells; CD3 on human peripheral blood CD4+ and CD8+ T cells
# Description: (§3) Fresh human peripheral blood was taken and PBMCs were isolated by Ficoll-Paque Plus (GE, 17-1440-03). The PBMCs were adjusted to 5×10⁵ cells/mL with 4% calf serum (Hyclone, SH30626.06), and added to a 96-well U-plate at 100 μL/well. The centrifuged supernatant was discarded. 100 μL of gradient diluted antibody (initial concentration: 1800 nM, 3-fold dilution, 11 gradients) was added to each well and incubated at 4° C. for 60 minutes. The secondary antibody Alexa Fluro647 labeled goat anti-human IgG Fc (1:300 dilution) was added at 50 μL/well and incubated on an ice bath for 20 min. After washing once, PI solution was added at 50 μL/well. Incubation was performed for 5 min before detection by flow cytometry (BD Celesta). The GPC3×CD3κλ bispecific antibody can bind to the human peripheral blood T cell with low affinity.
# human CD3 on T cells [5] = target: T5, human CD3 on T cells; experiment: flow cytometry, human peripheral blood CD4+ T cells
# Description: as §3
Binder,EC50 (human GPC3 on cells) [nM],EC50 [1] [nM],Kd [2] [nM],Kd [3] [nM],EC50 (human CD3 on T cells [4]) [nM],EC50 (human CD3 on T cells [5]) [nM]
"GPC3×CD3 κλ002 (bispecific antibody, human IgG4 S228P, kappa, lambda, also called GPC3 x CD3 κλ002; GPC3×CD3κλ bispecific antibody) light 1: DVVMTQSPLSLPVTPGEPASISCRSSQSIVHSNGNTYLEWYLKKPGQSPQLLIYKVSNRFSGVPDRFSGSGSGTDFTLKISRVEAEDVGVYFCLQVTHVPLTFGQGTKLEIKRTVAAPSVFIFPPSDEQLKSGTASVVCLLNNFYPREAKVQWKVDNALQSGNSQESVTEQDSKDSTYSLSSTLTLSKADYEKHKVYACEVTHQGLSSPVTKSFNRGEC heavy 1: QVQLVQSGAEVKKPGSSVKVSCKASGYTFADYEIHWVREAPGQGLEWMGAIHPGSGGTAYAQKFQGRVTLTADESSTTAYMELSSLRSEDTAVYYCTRYYSFAYWGQGTLVTVSSASTKGPSVFPLAPCSRSTSESTAALGCLVKDYFPEPVTVSWNSGALTSGVHTFPAVLQSSGLYSLSSVVTVPSSSLGTKTYTCNVDHKPSNTKVDKRVESKYGPPCPPCPAPEFEGGPSVFLFPPKPKDTLMISRTPEVTCVVVDVSQEDPEVQFNWYVDGVEVHNAKTKPREEQFNSTYRVVSVLTVLHQDWLNGKEYKCKVSNKGLASSIEKTISKAKGQPREPQVCTLPPSQEEMTKNQVSLSCAVKGFYPSDIAVEWESNGQPENNYKTTPPVLDSDGSFFLVSKLTVDKSRWQEGNVFSCSVMHEALHNHYTQKSLSLSLGK light 2: QAVVTQEPSLTVSPGGTVTLTCRSSTGAVTTSNYANWVQEKPGQAPRGLIGGTNKRAPWTPARFSGSLLGGKAALTITGAQAEDEAEYYCVLWYSNLWVFGGGTKLTVLGQPKAAPSVTLFPPSSEELQANKATLVCLISDFYPGAVTVAWKADSSPVKAGVETTTPSKQSNNKYAASSYLSLTPEQWKSHRSYSCQVTHEGSTVEKTVAPTECS heavy 2: EVQLVESGGGLVQPGGSLRLSCAASGFTFNTYAMNWVRKAPGKGLEWVGRIRSKYNNYATYYADSVKDRFTISRDDSKNSLYLQMNSLKTEDTAVYYCVRHGNFGNSYVSWFAYWGQGTLVTVSSASTKGPSVFPLAPCSRSTSESTAALGCLVKDYFPEPVTVSWNSGALTSGVHTFPAVLQSSGLYSLSSVVTVPSSSLGTKTYTCNVDHKPSNTKVDKRVESKYGPPCPPCPAPEFEGGPSVFLFPPKPKDTLMISRTPEVTCVVVDVSQEDPEVQFNWYVDGVEVHNAKTKPREEQFNSTYRVVSVLTVLHQDWLNGKEYKCKVSNKGLASSIEKTISKAKGQPREPQVYTLPPCQEEMTKNQVSLWCLVKGFYPSDIAVEWESNGQPENNYKTTPPVLDSDGSFFLYSKLTVDKSRWQEGNVFSCSVMHEALHNHYTQKSLSLSLGK",2.8,3,15.9,23.9,65,65
"GPC3×CD3 κλ003 (bispecific antibody, human IgG4 S228P, kappa, lambda, also called GPC3 x CD3 κλ003; GPC3×CD3κλ bispecific antibody) light 1: DVVMTQSPLSLPVTPGEPASISCRSSQSIVHSNGNTYLEWYLKKPGQSPQLLIYKVSNRFSGVPDRFSGSGSGTDFTLKISRVEAEDVGVYFCLQVTHVPLTFGQGTKLEIKRTVAAPSVFIFPPSDKKLKSGTASVVCLLNNFYPREAKVQWKVDNALQSGNSQESVTEQDSKDSTYSLSSTLTLSKADYEKHKVYACEVTHQGLSSPVTKSFNRGEC heavy 1: QVQLVQSGAEVKKPGSSVKVSCKASGYTFADYEIHWVREAPGQGLEWMGAIHPGSGGTAYAQKFQGRVTLTADESSTTAYMELSSLRSEDTAVYYCTRYYSFAYWGQGTLVTVSSASTKGPSVFPLAPCSRSTSESTAALGCLVEDYFPEPVTVSWNSGALTSGVHTFPAVLQSSGLYSLSSVVTVPSSSLGTKTYTCNVDHKPSNTKVDERVESKYGPPCPPCPAPEFEGGPSVFLFPPKPKDTLMISRTPEVTCVVVDVSQEDPEVQFNWYVDGVEVHNAKTKPREEQFNSTYRVVSVLTVLHQDWLNGKEYKCKVSNKGLASSIEKTISKAKGQPREPQVCTLPPSQEEMTKNQVSLSCAVKGFYPSDIAVEWESNGQPENNYKTTPPVLDSDGSFFLVSKLTVDKSRWQEGNVFSCSVMHEALHNHYTQKSLSLSLGK light 2: QAVVTQEPSLTVSPGGTVTLTCRSSTGAVTTSNYANWVQEKPGQAPRGLIGGTNKRAPWTPARFSGSLLGGKAALTITGAQAEDEAEYYCVLWYSNLWVFGGGTKLTVLGQPKAAPSVTLFPPSSEELQANKATLVCLISDFYPGAVTVAWKADSSPVKAGVETTTPSKQSNNKYAASSYLSLTPEQWKSHRSYSCQVTHEGSTVEKTVAPTECS heavy 2: EVQLVESGGGLVQPGGSLRLSCAASGFTFNTYAMNWVRKAPGKGLEWVGRIRSKYNNYATYYADSVKDRFTISRDDSKNSLYLQMNSLKTEDTAVYYCVRHGNFGNSYVSWFAYWGQGTLVTVSSASTKGPSVFPLAPCSRSTSESTAALGCLVKDYFPEPVTVSWNSGALTSGVHTFPAVLQSSGLYSLSSVVTVPSSSLGTKTYTCNVDHKPSNTKVDKRVESKYGPPCPPCPAPEFEGGPSVFLFPPKPKDTLMISRTPEVTCVVVDVSQEDPEVQFNWYVDGVEVHNAKTKPREEQFNSTYRVVSVLTVLHQDWLNGKEYKCKVSNKGLASSIEKTISKAKGQPREPQVYTLPPCQEEMTKNQVSLWCLVKGFYPSDIAVEWESNGQPENNYKTTPPVLDSDGSFFLYSKLTVDKSRWQEGNVFSCSVMHEALHNHYTQKSLSLSLGK",2.9,3,12.1,17.8,69,56
